The values below come from patent US20260071003A1 (UNIVERSITY OF GEORGIA RESEARCH FOUNDATION, published 2026).

Experiment [1] addresses T1, ApoL1 Protein, human recombinant (Sino Biological 13910-H08B) (human, UniProt O14791 28-398).
T1 construct: also called rApoL1; recombinant ApoL1
T1 sequence: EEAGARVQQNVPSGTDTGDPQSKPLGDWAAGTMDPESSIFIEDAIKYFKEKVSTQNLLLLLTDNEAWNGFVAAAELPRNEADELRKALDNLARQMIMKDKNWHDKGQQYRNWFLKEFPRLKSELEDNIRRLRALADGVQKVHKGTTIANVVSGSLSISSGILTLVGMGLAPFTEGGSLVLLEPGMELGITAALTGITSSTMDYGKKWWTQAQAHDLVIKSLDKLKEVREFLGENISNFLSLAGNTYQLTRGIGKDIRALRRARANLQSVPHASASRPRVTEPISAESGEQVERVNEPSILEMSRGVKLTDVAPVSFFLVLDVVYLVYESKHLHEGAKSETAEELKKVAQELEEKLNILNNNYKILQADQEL
Nature of the experiment: bridging ELISA control without bsAb (bsAb-): immobilized ApoL1, then rabbit Fc tagged BCMA, detected with anti-rabbit HRP. As to the method: Enzyme-Linked Immunosorbent Assay (ELISA) plates were prepared by incubating them overnight at 4° C. with their respective immobilization buffer (bicarbonate/carbonate coating buffer 100 mM) or blocking buffer (PBS, 0.1% Tween-20, 1% BSA).
For the bridging ELISA experiments, ApoL1 (Sino Cat.13910-H08B) or BCMA (Sino Cat. 10620-H15H) were resuspended at a 1:10,000 dilution in ELISA binding buffer (1×PBST+1% BSA) and then incubated overnight at 4° C. ApoL1 was immobilized across all conditions except where BCMA was immobilized as a primary protein (ApoL1-*). Following immobilization, 100 μl of bispecific antibody (bsAb, […] in ELISA blocking buffer) was added and allowed to incubate for 1 hour at 37° C. Subsequently, each well underwent four rounds of 150 μl washes with 1×PBST. Next, 1 μg/mL rabbit Fc tagged BCMA in ELISA blocking buffer was allowed to incubate for 1 hr at 37° C. followed by four more rounds of 150 μl 1×PBST washes. A secondary binding component, anti-rabbit HRP, was added at 1:10,000 and the plate was incubated for an additional hour at 37° C. followed by another four rounds of 150 μl washes with 1×PBST. […] The reaction was halted by adding 50 μl of Stop Solution, and the absorbance was promptly measured at 450 nm on a SpectraMax iD3 plate reader ([…]).
A general note: ELISA stands for enzyme-linked immunosorbent assay.

Experiment [2] deals with T2, BCMA on RPMI 8226 (ATCC CCL-155) multiple myeloma cells (UniProt Q02223 1-184, limits assumed).
T2 construct: whole, on cells; No BCMA-negative cell control is reported; also called MM cells
T2 sequence (looked up): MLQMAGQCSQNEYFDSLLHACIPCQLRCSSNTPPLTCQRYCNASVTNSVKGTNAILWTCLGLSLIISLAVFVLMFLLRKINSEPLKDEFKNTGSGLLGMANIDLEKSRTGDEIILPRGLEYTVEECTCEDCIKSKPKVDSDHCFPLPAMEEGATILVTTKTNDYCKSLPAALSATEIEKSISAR
Nature of the experiment: imaging flow cytometry on fixed RPMI 8226 cells; Alexa-488 labeled bsAb at 3 µg/mL against Alexa-488 labeled human IgG1 isotype control. As to the method: Cells were cultured according to standard protocols. All cell pelleting were performed at 300× g for 5 minutes at 4 C. One to two days prior to the experiment, cells were washed and split to achieve a cell density of approximately […] in a total volume of 10-30 mL containing 10 nM LY411575 (LY). On the day of the experiment, Zombie NIR dye (BioLegend Cat. 423106) was diluted 1:100 in phosphate-buffered saline (PBS). Cells were washed and resuspended in PBS with Zombie NIR dye at a concentration of 1×10\hat{ }7 cells/mL and incubated for 10 minutes at room temperature. […]
Imaging flow cytometry acquisition was performed on an ImageStream X MK II (Luminex Corporation, Seattle, Washington) with fluidics set at low speed, sensitivity set to high, magnification set to 60×, and illumination set to: 405:120 mW, 488:200 mW, 561:200 mW, 642:150 mW, SSC:4.38 mW. […] Gates were set and quantified using IDEAS software version 6.2.
Imaging flow cytometry was used as an assay to determine if the ApoL1-BCMA-bsAb (bsAb) of Example 8 binds the two intended targets in vitro. First, the bsAb and a human IgG1 isotype control were Alexa-488 labeled and binding affinities were determined by measuring total cellular florescence after incubation. […]
(Flow cytometry measures light scatter and fluorescence of single cells or particles in a stream.)

Experiment [3] addresses T1, ApoL1 Protein, human recombinant (Sino …). Nature of the experiment: imaging flow cytometry: RPMI 8226 cells pre-incubated with 30 µg/mL bsAb or isotype control, then Alexa-488 labeled recombinant ApoL1. Here is the method: Cells were prepared as above with the addition of 15 μg/mL unlabeled ApoL1 in the blocking buffer for overnight incubation. After blocking, cells were washed 2 times with CSB and aliquoted to 50 μl aliquots for each reaction. First, bsAb or isotype control was added at 30 μg/mL for 1.5 hours, followed by 2 washes and […] of Alexa labeled ApoL1-488. Cells were incubated for 1 hour and washed 3 times with the final wash resuspended in 50 μl of CSB.
Imaging flow cytometry acquisition was performed on an ImageStream X MK II (Luminex Corporation, Seattle, Washington) with fluidics set at low speed, sensitivity set to high, magnification set to 60×, and illumination set to: 405:120 mW, 488:200 mW, 561:200 mW, 642:150 mW, SSC:4.38 mW. All samples were acquired using the autosampler with INSPIRE software for an acquisition time of 4000 events or 8 minutes per sample, with events counting SSC channel from 5.2×10\hat{ }5 to 8.9×10\hat{ }7. Gates were set and quantified using IDEAS software version 6.2.
Next, Alexa-488 labeled recombinant ApoL1 was used to determine if cell bound bsAb can bind ApoL1. Some background binding of labeled ApoL1 to cells without bsAb, likely due to existing binding affinities for ApoL1 to cell membranes, was foreseen. […]

Experiment [4] shares this target. Nature of the experiment: Western blot of recombinant ApoL1 (SDS-PAGE, non-reducing and reducing). (In general: In western blotting, separated proteins are transferred to a membrane and probed.)
Experiment [5] deals with T3, native human Apolipoprotein L1 (ApoL1), in purified TLF / HDL float / normal human serum / endogenous in … (human, UniProt O14791 28-398).
T3 construct: Secreted native protein carried on HDL/TLF particles; also called Native ApoL1; endogenous ApoL1
T3 sequence: T1 sequence
Nature of the experiment: Western blot of column purified TLF (2 ug), non-reducing and reducing.

Experiment [6] has as its target T1, ApoL1 Protein, human recombinant (Sino …). Nature of the experiment: dot blot (native).

B1: BCMA Protein, Human, Recombinant (ECD, rFc Tag) (Sino Biological 10620-H15H) (Fc fusion, UniProt Q02223 1-54, looked up)
chain: MLQMAGQCSQNEYFDSLLHACIPCQLRCSSNTPPLTCQRYCNASVTNSVKGTNA
notes: extracellular domain; Bought protein; also called recombinant BCMA; rabbit Fc tagged BCMA; not shown: rabbit Fc tag
For B1, in experiment [1], the binding result is recorded as “no binding (tested: 1 µg/mL rabbit Fc tagged BCMA)”.

B2: Clone 13.11×BCMAscFv: bsAbBCMA/ApoL1, anti-ApoL1, BCMA IgG1-scFv (Heavy Chain C-terminus) bispecific antibody (bispecific antibody)
heavy: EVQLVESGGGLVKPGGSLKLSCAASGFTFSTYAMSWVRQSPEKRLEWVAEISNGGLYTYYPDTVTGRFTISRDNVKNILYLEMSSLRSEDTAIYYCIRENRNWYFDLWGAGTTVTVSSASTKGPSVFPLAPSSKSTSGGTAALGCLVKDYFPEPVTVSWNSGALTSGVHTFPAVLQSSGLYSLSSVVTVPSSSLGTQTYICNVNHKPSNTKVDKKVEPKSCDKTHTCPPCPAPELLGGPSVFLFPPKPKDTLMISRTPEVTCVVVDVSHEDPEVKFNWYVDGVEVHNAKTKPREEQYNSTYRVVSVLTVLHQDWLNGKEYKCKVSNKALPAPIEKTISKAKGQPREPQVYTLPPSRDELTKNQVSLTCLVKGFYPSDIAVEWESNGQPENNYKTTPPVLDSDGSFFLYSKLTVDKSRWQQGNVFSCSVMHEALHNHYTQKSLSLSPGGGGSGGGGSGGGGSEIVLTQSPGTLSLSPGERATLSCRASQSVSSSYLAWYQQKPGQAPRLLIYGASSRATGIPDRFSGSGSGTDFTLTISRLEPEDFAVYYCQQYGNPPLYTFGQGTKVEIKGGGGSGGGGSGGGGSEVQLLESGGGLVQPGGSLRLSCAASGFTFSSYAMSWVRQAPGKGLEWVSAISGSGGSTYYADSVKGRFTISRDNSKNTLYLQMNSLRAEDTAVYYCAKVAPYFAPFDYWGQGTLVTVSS
light: DVLMTQTPLSLPVSLGDQASISCRSSQSIVNSNGNTYLEWYLQKPGQSPKLLIYKVSNRFSGVPDRFSGSGSGTDFTLKISRVEAEDLGVYYCFQGSHVPLTFGAGTKLEIKRTVAAPSVFIFPPSDEQLKSGTASVVCLLNNFYPREAKVQWKVDNALQSGNSQESVTEQDSKDSTYSLSSTLTLSKADYEKHKVYACEVTHQGLSSPVTKSFNRGEC
notes: It was used unlabeled, HRP-labeled or Alexa Fluor 488 labeled, depending on the assay; also called ApoL1-BCMA-bsAb; 488-bsAb
For B2, the “fold increase of measured fluorescence per cell compared to isotype control” value in experiment [2] was found to be 20 ×. In experiment [3], the “fold increase in average cell fluorescence compared to isotype control” value was 2 ×.

B3: recombinant anti-Hpr antibody, clone SFII 134.3 (antibody, V domains shown)
VH: QIQLVQSGPELKKPGETVKISCKASGYIFTNYGMNWVRQAPGKGLKWMGWINSYTGEATYTDDLKGRFAFSLESSASTAYLQINNLKNEDTATYFCAREGYGDYGYSFDYWGQGTTLTVSS
VL: DIQMTQSPASLSASVGETVTITCRATKNIYTYLAWYQQKQGKSPQFLVYNAKTLAEGVPSRFSGSGSGTQFSLKINSLQPEDFGNYYCQHHYGTPRTFGGGTKLEIK
notes: Recombinant form of mouse anti-Hpr clone SFII 134.3; it was detected with goat anti-mouse secondary; also called recombinant antibody
In the case of B3, the binding result in experiment [4] is reported as “no binding (tested: 1:10,000 dilution of antibody)”.

B4: ascites Prot-G purified anti-Hpr antibody, clone SFII 134.3 (mouse IgG2a) (antibody, V domains shown)
VH: B3 VH
VL: DIQMTQSPASLSASVGETVTITCRATKNIYTYLAWYQQKQGKSPQFLVYNAKTLAEGVPSRFSGSGSGTQFSLKINSLQPEDFGNYYCQHHYGTPRTFGGGTKLEIKR
notes: Hybridoma-derived mouse IgG2a; also called ascites Pro-G purified antibody; purified antibody
Turning to B4, the binding result in experiment [4] is “no binding (tested: 1:10,000 dilution of antibody)”.

B5: ascites Prot-G purified anti-ApoL1 antibody, clone SFIII 13.11 (mouse IgG1) (antibody, V domains shown)
VH: EVQLVESGGGLVKPGGSLKLSCAASGFTFSTYAMSWVRQSPEKRLEWVAEISNGGLYTYYPDTVTGRFTISRDNVKNILYLEMSSLRSEDTAIYYCIRENRNWYFDLWGAGTTVTVSS
VL: DVLMTQTPLSLPVSLGDQASISCRSSQSIVNSNGNTYLEWYLQKPGQSPKLLIYKVSNRFSGVPDRFSGSGSGTDFTLKISRVEAEDLGVYYCFQGSHVPLTFGAGTKLELKR
notes: Hybridoma-derived mouse IgG1; also called ascites Pro-G purified antibody; purified antibody
With B5, the binding result in experiment [5] and in experiment [6] was “binds” each time.
